Results reported in patent US20180155451A1 (published 2018).
Changes are numbered by the printed parent chain. Numbers in names are those of the source.

T1: FcgRIIaH (human, UniProt P12318 34-217)
T1 construct: extracellular domain; H131 allotype; also called FcγRIIa H; FcgRIIa type H; not shown: C-terminal His tag
T1 sequence (looked up): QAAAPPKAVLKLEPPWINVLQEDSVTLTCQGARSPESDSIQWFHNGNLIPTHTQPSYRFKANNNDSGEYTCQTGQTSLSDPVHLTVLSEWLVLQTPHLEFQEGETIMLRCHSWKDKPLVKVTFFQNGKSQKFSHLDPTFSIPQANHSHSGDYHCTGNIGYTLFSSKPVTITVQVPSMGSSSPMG

T2: FcgRIIb (human, UniProt P31994 43-217)
T2 construct: extracellular domain; also called FcγRIIb; CD32B; not shown: C-terminal His tag
T2 sequence (looked up): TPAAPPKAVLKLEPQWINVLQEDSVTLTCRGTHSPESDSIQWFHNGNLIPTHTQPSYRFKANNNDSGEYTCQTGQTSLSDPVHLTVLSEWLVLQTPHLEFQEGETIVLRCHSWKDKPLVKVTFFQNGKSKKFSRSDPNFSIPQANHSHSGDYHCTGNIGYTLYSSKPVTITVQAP

T3: FcgRIIaR (human, UniProt P12318 34-217)
T3 construct: extracellular domain; R131 allotype; also called FcγRIIa R; FcgRIIa type R; not shown: C-terminal His tag
T3 sequence (looked up): T1 sequence (looked up) with H134R

B1: H240-Kn120/H240-Hl068/L73-k0 (antibody, human IgG1, kappa)
heavy 1: QDQLVQSGAEVKKPGASVKVSCKASGFNIKDTYIQWVRQAPGQGLEWMGRIDPLRKQTKYREKFEGRVTITADTSTNTAYMELSSLRSEDTAVYYCVRSGREFDYWGQGTLVTVSSASTKGPSVFPLAPSSKSTSGGTAALGCLVKDYFPEPVTVSWNSGALTSGVHTFPAVLQSSGLYSLSSVVTVPSSSLGTQTYICNVNHKPSNTKVDKKVEPKSCDKTHTCPPCPAPEYYWGPMVFLFPPKPKDTLMISRTPEVTCVVVDVSDEDPEVKFNWYVDGVEVHNAKTKPREEQYNATYRVVSVLTVLHQDWLNGKEYKCKVSNKDLPAPIEKTISKAKGQPREPQVCTLPPSRDELTKNQVSLWCLVKGFYPSDIAVEWESNGQPENNYKTTPPVLDSDGSFFLYSKLTVDKSRWQQGNVFSCSVMHEALHNHYTQKSLSLSP
heavy 2: QDQLVQSGAEVKKPGASVKVSCKASGFNIKDTYIQWVRQAPGQGLEWMGRIDPLRKQTKYREKFEGRVTITADTSTNTAYMELSSLRSEDTAVYYCVRSGREFDYWGQGTLVTVSSASTKGPSVFPLAPSSKSTSGGTAALGCLVKDYFPEPVTVSWNSGALTSGVHTFPAVLQSSGLYSLSSVVTVPSSSLGTQTYICNVNHKPSNTKVDKKVEPKSCDKTHTCPPCPAPELLGGPSVFLFPPKPKDTLMISRTPEVTCVVVDVSHEEPEVKFNWYVDGVEVHNAKTKPREEQYNSTYRVVSVLTVLHQDWLNGKEYKCKVSNDALPKPIEETISKAKGQPREPQVYTLPPSRCELTKNQVSLSCAVKGFYPSDIAVEWESNGQPENNYKTTPPVLDSDGSFFLVSKLTVDKSRWQQGNVFSCSVMHEALHNHYTQKSLSLSP
light: DIQMTQSPSSLSASVGDRVTITCRASQDIHKYIAWYQQKPGQAPRLLIQYTSTLQPGVPSRFSGSGSGTDYTFTISSLQPEDIATYYCLQYEQLRTFGGGTKVEIKRTVAAPSVFIFPPSDEQLKSGTASVVCLLNNFYPREAKVQWKVDNALQSGNSQESVTEQDSKDSTYSLSSTLTLSKADYEKHKVYACEVTHQGLSSPVTKSFNRGEC
notes: Heterodimerized anti-epiregulin IgG1-type antibody (knobs-into-holes); also called H240-Kn120/H240-HI068/L73-k0
B2: H240-Kn120/H240-Hl089/L73-k0 (antibody, human IgG1, kappa)
heavy 1: B1 heavy 1
heavy 2: B1 heavy 2 with G235T
light: B1 light
notes: Heterodimerized anti-epiregulin antibody; G236T in the Hl068 chain; also called H240-Kn120/H240-HI089/L73-k0
B3: H240-Kn179/H240-Hl089/L73-k0 (antibody, human IgG1, kappa)
heavy 1: B1 heavy 1 with E293K
heavy 2: B1 heavy 2 with G235T
light: B1 light
notes: Heterodimerized anti-epiregulin antibody; E294R in one chain, G236T in the other
B4: H240-Kn180/H240-Hl089/L73-k0 (antibody, human IgG1, kappa)
heavy 1: B1 heavy 1 with E293R
heavy 2: B1 heavy 2 with G235T
light: B1 light
notes: Heterodimerized anti-epiregulin antibody; E294K in one chain, G236T in the other

Biological target: T4, FcgRIIIaF (human, UniProt P08637 17-208)
T4 construct: extracellular domain; F158 allotype; also called FcγRIIIa F; not shown: C-terminal His tag
T4 sequence (P08637 17-208): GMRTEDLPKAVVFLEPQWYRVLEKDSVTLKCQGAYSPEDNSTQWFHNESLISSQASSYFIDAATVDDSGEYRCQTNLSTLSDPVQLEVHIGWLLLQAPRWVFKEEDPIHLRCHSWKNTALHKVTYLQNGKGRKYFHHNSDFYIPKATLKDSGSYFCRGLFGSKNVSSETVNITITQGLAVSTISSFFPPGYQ
Experiment: SPR (Biacore), antibody captured on chip, FcgR as analyte
Method: (§1) The variants described above were assessed for their binding to FcgR according to the method described in Reference Example 8.
(§2) Analysis of interaction between obj ective antibody and the FcγR was carried out using Biacore T100 (GE Healthcare), Biacore T200, Biacore A100, and Biacore 4000. HBS-EP+ (GE Healthcare) was used as the running buffer, and the measurement temperature was set to 25° C. Chips produced by immobilizing the antigen peptide by the amine coupling method to a Series S sensor Chip CM5 (GE Healthcare), chips produced by allowing preliminarily biotinylated antigen peptides to interact with and immobilize onto a Series S Sensor Chip SA (certified) (GE Healthcare), chips produced by immobilizing Protein L (ACTIGEN, BioVision) to Series S Sencor Chip CM5 (GE Healthcare), or chips produced by immobilizing Protein A/G (Thermo Scientific) to Series S Sencor Chip CM5 (GE Healthcare) were used. Antibodies of interest were captured onto these chips, and allowed to interact to each FcγR diluted with running buffer. To regenerate and repeatedly use the chip, the antibodies captured onto the chip were washed off by reacting 10 mM glycine-HCl, pH 1.5.

Kd | Binder
2.2 nM | B1
12 nM | B2

Biological target: T1, FcgRIIaH
Experiment: as above
Method: as §1, §2

Kd | Binder
41 nM | B1
41 nM | B2

Biological target: T5, FcgRIa (human, UniProt P12314 16-292)
T5 construct: extracellular domain; also called FcγRIa; FcγRI; not shown: C-terminal His tag
T5 sequence (P12314 16-292): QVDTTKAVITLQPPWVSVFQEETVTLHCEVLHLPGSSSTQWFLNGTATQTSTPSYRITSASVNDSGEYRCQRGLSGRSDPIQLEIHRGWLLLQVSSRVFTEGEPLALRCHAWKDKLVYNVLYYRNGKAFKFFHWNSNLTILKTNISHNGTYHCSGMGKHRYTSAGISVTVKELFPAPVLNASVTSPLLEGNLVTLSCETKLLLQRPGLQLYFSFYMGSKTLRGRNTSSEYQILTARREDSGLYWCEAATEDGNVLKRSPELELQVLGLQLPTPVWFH
Experiment: as above
Method: as §1, §2

Kd | Binder
0.16 nM | B1
0.18 nM | B2

Biological target: T6, FcgRIIIaV (human, UniProt P08637 17-208)
T6 construct: extracellular domain; V158 allotype; also called FcγRIIIa V; not shown: C-terminal His tag
T6 sequence (P08637 17-208 F176V limits assumed): as the sequence (P08637 17-208) above, with F160V counted along it
Experiment: as above
Method: as §1, §2

Kd | Binder
0.36 nM | B1
5.4 nM | B2

Biological target: T2, FcgRIIb
Experiment: as above
Method: as §1, §2

Kd | Binder
150 nM | B1
190 nM | B2

Biological target: T3, FcgRIIaR
Experiment: as above
Method: as §1, §2

Kd | Binder
20 nM | B1
14 nM | B2

Biological target: T4, FcgRIIIaF
Experiment: as above
Remark: another data set of the same source
Method: (§3) The variants described above were assessed for their binding to FcγR according to the method described in Reference Example 8.
as §2

Kd | Binder
2.2 nM | B1
12 nM | B2
39 nM | B3
24 nM | B4

Biological target: T1, FcgRIIaH
Experiment: as above
Remark: another data set of the same source
Method: as §3, §2

Kd | Binder
41 nM | B1
41 nM | B2
47 nM | B3
38 nM | B4

Biological target: T5, FcgRIa
Experiment: as above
Remark: another data set of the same source
Method: as §3, §2

Kd | Binder
0.16 nM | B1
0.18 nM | B2
0.46 nM | B3
0.27 nM | B4

Biological target: T6, FcgRIIIaV
Experiment: as above
Remark: another data set of the same source
Method: as §3, §2

Kd | Binder
0.36 nM | B1
5.4 nM | B2
18 nM | B3
14 nM | B4

Biological target: T2, FcgRIIb
Experiment: as above
Remark: another data set of the same source
Method: as §3, §2

Kd | Binder
150 nM | B1
190 nM | B2
400 nM | B3
380 nM | B4

Biological target: T3, FcgRIIaR
Experiment: as above
Remark: another data set of the same source
Method: as §3, §2

Kd | Binder
20 nM | B1
14 nM | B2
18 nM | B3
16 nM | B4

Biological target: T4, FcgRIIIaF
Experiment: SPR (Biacore); KD of H240-Kn120/H240-Hl068/L73-k0 divided by KD of the sample
Method: as §3, §2

Relative KD | Binder
1 | B1
0.2 | B2
0.1 | B3
0.1 | B4

Biological target: T1, FcgRIIaH
Experiment: as above
Method: as §3, §2

Relative KD | Binder
1 | B1
1 | B2
0.9 | B3
1.1 | B4

Biological target: T6, FcgRIIIaV
Experiment: as above
Method: as §3, §2

Relative KD | Binder
1 | B1
0.1 | B2
0 | B3
0 | B4

Biological target: T2, FcgRIIb
Experiment: as above
Method: as §3, §2

Relative KD | Binder
1 | B1
0.8 | B2
0.4 | B3
0.4 | B4

Biological target: T3, FcgRIIaR
Experiment: as above
Method: as §3, §2

Relative KD | Binder
1 | B1
1.4 | B2
1.1 | B3
1.3 | B4

Biological target: T4, FcgRIIIaF
Experiment: as above
Remark: another data set of the same source
Method: as §1, §2

Relative KD | Binder
1 | B1
0.2 | B2

Biological target: T1, FcgRIIaH
Experiment: as above
Remark: another data set of the same source
Method: as §1, §2

Relative KD | Binder
1 | B1
1 | B2

Biological target: T6, FcgRIIIaV
Experiment: as above
Remark: another data set of the same source
Method: as §1, §2

Relative KD | Binder
1 | B1
0.1 | B2

Biological target: T2, FcgRIIb
Experiment: as above
Remark: another data set of the same source
Method: as §1, §2

Relative KD | Binder
1 | B1
0.8 | B2

Biological target: T3, FcgRIIaR
Experiment: as above
Remark: another data set of the same source
Method: as §1, §2

Relative KD | Binder
1 | B1
1.4 | B2
